Reference: patent US20210214413A1

What was measured:
[1] = molecular target: rhinovirus C15 virus (recombinant RV-C isolate C15, sucrose purified) (rhinovirus C15); assay: IP (α-His mAb) of refolded bacterial protein (100 pmol) with C15 virus (10^7 PFUe), Western blot
[2] = molecular target: rhinovirus C15 virus (recombinant RV-C isolate C15, sucrose purified) (rhinovirus C15); assay: as above; remark: listed apart in the source
[3] = molecular target: rhinovirus C15 virus (recombinant RV-C isolate C15, sucrose purified) (rhinovirus C15); assay: IP (α-CDHR3 mAb) of transfected HeLa cell lysate reacted with C15 virus, Western blot
[4] = molecular target: rhinovirus C15 virus (recombinant RV-C isolate C15, sucrose purified) (rhinovirus C15); assay: IP of CDHR3 with C15 virus, Western blot; multiple experiments and CDHR3 contexts

Molecule	virus-binding efficiency (Binding % relative to positive control) [1] [%]	Binding % (C15 signal normalized to CDHR3 signal, relative to WT) [3] [%]	other results
rEC1-3 (FLAG-CDHR3 EC1-3-His, CDHR3 residues 20-345 with C345A), bacterially produced and refolded (from UniProt Q6ZTQ4 20-344) (receptor)	61	–	–
rEC1+3(Δ2) (FLAG-CDHR3 EC1+3(Δ2), residues 20-345 Δ129-231 with C345A), bacterially produced and refolded (from UniProt Q6ZTQ4 20-344) (receptor)	68	–	–
rEC1-2 (FLAG-CDHR3 EC1-2-His, CDHR3 residues 20-237), bacterially produced and refolded (from UniProt Q6ZTQ4 20-237) (receptor)	87	–	–
rEC1 (FLAG-CDHR3 EC1-His, CDHR3 residues 20-130), bacterially produced and refolded (receptor)	100	–	–
rEC1-3 K43A (CDHR3 residues 20-345 with K43A and C345A), bacterially produced and refolded (receptor) MASDYKDDDDKLHLILLPATGNVAENSPPGTSVHAFSVKLSASLSPVIPGFPQIVNSNPLTEAFRVNWLSGTYFEVVTTGMEQLDFETGPNIFDLQIYVKDEVGVTDLQVLTVQVTDVNEPPQFQGNLAEGLHLYIVERANPGFIYQVEAFDPEDTSRNIPLSYFLISPPKSFRMSANGTLFSTTELDFEAGHRSFHLIVEVRDSGGLKASTELQVNIVNLNDEVPRFTSPTRVYTVLEELSPGTIVANITAEDPDDEGFPSHLLYSITTVSKYFMINQLTGTIQVAQRIDRDAGELRQNPTISLEVLVKDRPYGGQENRIQITFIVEDVNDNPATAGTKHHHHHH	–	–	Binding % (C15 signal normalized to recombinant protein signal, relative to WT rEC1-3) [2]: 22%
rEC1-3 N186A (CDHR3 residues 20-345 with N186A and C345A), bacterially produced and refolded (receptor) MASDYKDDDDKLHLILLPATGNVAENSPPGTSVHKFSVKLSASLSPVIPGFPQIVNSNPLTEAFRVNWLSGTYFEVVTTGMEQLDFETGPNIFDLQIYVKDEVGVTDLQVLTVQVTDVNEPPQFQGNLAEGLHLYIVERANPGFIYQVEAFDPEDTSRNIPLSYFLISPPKSFRMSAAGTLFSTTELDFEAGHRSFHLIVEVRDSGGLKASTELQVNIVNLNDEVPRFTSPTRVYTVLEELSPGTIVANITAEDPDDEGFPSHLLYSITTVSKYFMINQLTGTIQVAQRIDRDAGELRQNPTISLEVLVKDRPYGGQENRIQITFIVEDVNDNPATAGTKHHHHHH	–	–	Binding % (C15 signal normalized to recombinant protein signal, relative to WT rEC1-3) [2]: 85 % of WT
full-length FLAG-CDHR3 Y529 N186Q (receptor) DYKDDDDKLHLILLPATGNVAENSPPGTSVHKFSVKLSASLSPVIPGFPQIVNSNPLTEAFRVNWLSGTYFEVVTTGMEQLDFETGPNIFDLQIYVKDEVGVTDLQVLTVQVTDVNEPPQFQGNLAEGLHLYIVERANPGFIYQVEAFDPEDTSRNIPLSYFLISPPKSFRMSAQGTLFSTTELDFEAGHRSFHLIVEVRDSGGLKASTELQVNIVNLNDEVPRFTSPTRVYTVLEELSPGTIVANITAEDPDDEGFPSHLLYSITTVSKYFMINQLTGTIQVAQRIDRDAGELRQNPTISLEVLVKDRPYGGQENRIQITFIVEDVNDNPATCQKFTFSIMVPERTAKGTLLLDLNKFCFDDDSEAPNNRFNFTMPSGVGSGSRFLQDPAGSGKIVLIGDLDYENPSNLAAGNKYTVIIQVQDVAPPYYKNNVYVYILTSPENEFPLIFDRPSYVFDVSERRPARTRVGQVRATDKDLPQSSLLYSISTGGASLQYPNVFWINPKTGELQLVTKVDYETTPIYILRIQATNNEDTSSVTVTVNILEENDEKPICTPNSYFLALPVDLKVGTNIQNFKLTCTDLDSSPRSFRYSIGPGNVNNHFTFSPNAGSNVTRLLLTSRFDYAGGFDKIWDYKLLVYVTDDNLMSDRKKAEALVETGTVTLSIKVIPHPTTIITTTPRPRVTYQVLRKNVYSPSAWYVPFVITLGSILLLGLLVYLVVLLAKAIHRHCPCKTGKNKEPLTKKGETKTAERDVVVETIQMNTIFDGEAIDPVTGETYEFNSKTGARKWKDPLTQMPKWKESSHQGAAPRRVTAGEGMGSLRSANWEEDELSGKAWAEDAGLGSRNEGGKLGNPKNRNPAFMNRAYPKPHPGK	–	19	–
full-length FLAG-CDHR3 Y529 R166A (receptor) DYKDDDDKLHLILLPATGNVAENSPPGTSVHKFSVKLSASLSPVIPGFPQIVNSNPLTEAFRVNWLSGTYFEVVTTGMEQLDFETGPNIFDLQIYVKDEVGVTDLQVLTVQVTDVNEPPQFQGNLAEGLHLYIVERANPGFIYQVEAFDPEDTSANIPLSYFLISPPKSFRMSANGTLFSTTELDFEAGHRSFHLIVEVRDSGGLKASTELQVNIVNLNDEVPRFTSPTRVYTVLEELSPGTIVANITAEDPDDEGFPSHLLYSITTVSKYFMINQLTGTIQVAQRIDRDAGELRQNPTISLEVLVKDRPYGGQENRIQITFIVEDVNDNPATCQKFTFSIMVPERTAKGTLLLDLNKFCFDDDSEAPNNRFNFTMPSGVGSGSRFLQDPAGSGKIVLIGDLDYENPSNLAAGNKYTVIIQVQDVAPPYYKNNVYVYILTSPENEFPLIFDRPSYVFDVSERRPARTRVGQVRATDKDLPQSSLLYSISTGGASLQYPNVFWINPKTGELQLVTKVDYETTPIYILRIQATNNEDTSSVTVTVNILEENDEKPICTPNSYFLALPVDLKVGTNIQNFKLTCTDLDSSPRSFRYSIGPGNVNNHFTFSPNAGSNVTRLLLTSRFDYAGGFDKIWDYKLLVYVTDDNLMSDRKKAEALVETGTVTLSIKVIPHPTTIITTTPRPRVTYQVLRKNVYSPSAWYVPFVITLGSILLLGLLVYLVVLLAKAIHRHCPCKTGKNKEPLTKKGETKTAERDVVVETIQMNTIFDGEAIDPVTGETYEFNSKTGARKWKDPLTQMPKWKESSHQGAAPRRVTAGEGMGSLRSANWEEDELSGKAWAEDAGLGSRNEGGKLGNPKNRNPAFMNRAYPKPHPGK	–	16	–
full-length FLAG-CDHR3 Y529 N186A (receptor) DYKDDDDKLHLILLPATGNVAENSPPGTSVHKFSVKLSASLSPVIPGFPQIVNSNPLTEAFRVNWLSGTYFEVVTTGMEQLDFETGPNIFDLQIYVKDEVGVTDLQVLTVQVTDVNEPPQFQGNLAEGLHLYIVERANPGFIYQVEAFDPEDTSRNIPLSYFLISPPKSFRMSAAGTLFSTTELDFEAGHRSFHLIVEVRDSGGLKASTELQVNIVNLNDEVPRFTSPTRVYTVLEELSPGTIVANITAEDPDDEGFPSHLLYSITTVSKYFMINQLTGTIQVAQRIDRDAGELRQNPTISLEVLVKDRPYGGQENRIQITFIVEDVNDNPATCQKFTFSIMVPERTAKGTLLLDLNKFCFDDDSEAPNNRFNFTMPSGVGSGSRFLQDPAGSGKIVLIGDLDYENPSNLAAGNKYTVIIQVQDVAPPYYKNNVYVYILTSPENEFPLIFDRPSYVFDVSERRPARTRVGQVRATDKDLPQSSLLYSISTGGASLQYPNVFWINPKTGELQLVTKVDYETTPIYILRIQATNNEDTSSVTVTVNILEENDEKPICTPNSYFLALPVDLKVGTNIQNFKLTCTDLDSSPRSFRYSIGPGNVNNHFTFSPNAGSNVTRLLLTSRFDYAGGFDKIWDYKLLVYVTDDNLMSDRKKAEALVETGTVTLSIKVIPHPTTIITTTPRPRVTYQVLRKNVYSPSAWYVPFVITLGSILLLGLLVYLVVLLAKAIHRHCPCKTGKNKEPLTKKGETKTAERDVVVETIQMNTIFDGEAIDPVTGETYEFNSKTGARKWKDPLTQMPKWKESSHQGAAPRRVTAGEGMGSLRSANWEEDELSGKAWAEDAGLGSRNEGGKLGNPKNRNPAFMNRAYPKPHPGK	–	11	–
full-length FLAG-CDHR3 Y529 K43A (receptor) DYKDDDDKLHLILLPATGNVAENSPPGTSVHAFSVKLSASLSPVIPGFPQIVNSNPLTEAFRVNWLSGTYFEVVTTGMEQLDFETGPNIFDLQIYVKDEVGVTDLQVLTVQVTDVNEPPQFQGNLAEGLHLYIVERANPGFIYQVEAFDPEDTSRNIPLSYFLISPPKSFRMSANGTLFSTTELDFEAGHRSFHLIVEVRDSGGLKASTELQVNIVNLNDEVPRFTSPTRVYTVLEELSPGTIVANITAEDPDDEGFPSHLLYSITTVSKYFMINQLTGTIQVAQRIDRDAGELRQNPTISLEVLVKDRPYGGQENRIQITFIVEDVNDNPATCQKFTFSIMVPERTAKGTLLLDLNKFCFDDDSEAPNNRFNFTMPSGVGSGSRFLQDPAGSGKIVLIGDLDYENPSNLAAGNKYTVIIQVQDVAPPYYKNNVYVYILTSPENEFPLIFDRPSYVFDVSERRPARTRVGQVRATDKDLPQSSLLYSISTGGASLQYPNVFWINPKTGELQLVTKVDYETTPIYILRIQATNNEDTSSVTVTVNILEENDEKPICTPNSYFLALPVDLKVGTNIQNFKLTCTDLDSSPRSFRYSIGPGNVNNHFTFSPNAGSNVTRLLLTSRFDYAGGFDKIWDYKLLVYVTDDNLMSDRKKAEALVETGTVTLSIKVIPHPTTIITTTPRPRVTYQVLRKNVYSPSAWYVPFVITLGSILLLGLLVYLVVLLAKAIHRHCPCKTGKNKEPLTKKGETKTAERDVVVETIQMNTIFDGEAIDPVTGETYEFNSKTGARKWKDPLTQMPKWKESSHQGAAPRRVTAGEGMGSLRSANWEEDELSGKAWAEDAGLGSRNEGGKLGNPKNRNPAFMNRAYPKPHPGK	–	46	–
full-length FLAG-CDHR3 Y529 W76A (receptor) DYKDDDDKLHLILLPATGNVAENSPPGTSVHKFSVKLSASLSPVIPGFPQIVNSNPLTEAFRVNALSGTYFEVVTTGMEQLDFETGPNIFDLQIYVKDEVGVTDLQVLTVQVTDVNEPPQFQGNLAEGLHLYIVERANPGFIYQVEAFDPEDTSRNIPLSYFLISPPKSFRMSANGTLFSTTELDFEAGHRSFHLIVEVRDSGGLKASTELQVNIVNLNDEVPRFTSPTRVYTVLEELSPGTIVANITAEDPDDEGFPSHLLYSITTVSKYFMINQLTGTIQVAQRIDRDAGELRQNPTISLEVLVKDRPYGGQENRIQITFIVEDVNDNPATCQKFTFSIMVPERTAKGTLLLDLNKFCFDDDSEAPNNRFNFTMPSGVGSGSRFLQDPAGSGKIVLIGDLDYENPSNLAAGNKYTVIIQVQDVAPPYYKNNVYVYILTSPENEFPLIFDRPSYVFDVSERRPARTRVGQVRATDKDLPQSSLLYSISTGGASLQYPNVFWINPKTGELQLVTKVDYETTPIYILRIQATNNEDTSSVTVTVNILEENDEKPICTPNSYFLALPVDLKVGTNIQNFKLTCTDLDSSPRSFRYSIGPGNVNNHFTFSPNAGSNVTRLLLTSRFDYAGGFDKIWDYKLLVYVTDDNLMSDRKKAEALVETGTVTLSIKVIPHPTTIITTTPRPRVTYQVLRKNVYSPSAWYVPFVITLGSILLLGLLVYLVVLLAKAIHRHCPCKTGKNKEPLTKKGETKTAERDVVVETIQMNTIFDGEAIDPVTGETYEFNSKTGARKWKDPLTQMPKWKESSHQGAAPRRVTAGEGMGSLRSANWEEDELSGKAWAEDAGLGSRNEGGKLGNPKNRNPAFMNRAYPKPHPGK	–	–	more virus pull-down than comparable WT sequences (% more than WT) [4]: 50 to 80
